Reference: patent publication US20230212319A1, “NOVEL ANTIGEN BINDING DOMAINS AND SYNTHETIC ANTIGEN RECEPTORS INCORPORATING THE SAME” (University of Southern California, priority 2020, published 2023)

B1: 22034 (protein)
chain: MALPVTALLLPLALLLHAARPQLQLQESGPGLVKPSETLSLTCTVSGDSISSGDYYWGWIRQPPGKGLEWIGHIYYSGVTYYNPSLKSRVTISVDTSRNQFSLKLSSVTAADTAVYYCTREDSSNWRSRGQGTLVTVSSLESGGGGSFEEVQLLESGGGLVQPGGSLRLSCAASGFTFSSYAMSWVRQAPGKGLEWVSSISGSGDYIYYADSVKGRFTISRDISKNTLYLQMNSLRAEDTAVYYCAKEGTGANSSLADYRGQGTLVTVSSTREQKLISEEDGSGIQNPDPAVYQLRDSKSSDKSVCLFTDFDSQTNVSQSKDSDVYITDKCVLDMRSMDFKSNSAVAWSNKSDFACANAFNNSIIPEDTFFPSSDVPCDVKLVEKSFETDTNLNFQNLSVIGFRILLLKVAGFNLLMTLRLWSSRAKRSGSGVKQTLNFDLLKLAGDVESNPGPSRGRMAKPLSQEESTLIERATATINSIPISEDYSVASAALSSDGRIFTGVNVYHFTGGPCAELVVLGTAAAAAAGNLTCIVAIGNENRGILSPCGRCRQVLLDLHPGIKAIVKDSDGQPTAVGIRELLPSGYVWEG
B2: 22052 (protein)
chain: MALPVTALLLPLALLLHAARPQLQLQESGPGLVKPSETLSLTCTVSGDSISSGDYYWGWIRQPPGKGLEWIGHIYYSGVTYYNPSLKSRVTISVDTSRNQFSLKLSSVTAADTAVYYCTREDSSNWRSRGQGTLVTVSSLEDKTHTCPPCPAEVKTDSTDHVKPKETENTKQPSKSCHKPKAIVHTEKVNMMSLTVLGLRMLFAKTVAVNFLLTAKLFFLRAKRSGSGVKQTLNFDLLKLAGDVESNPGPTSMDWIWRILFLVGAATGAHSFEVQLLESGGGLIQPGGSLRLSCAASGFTFSSHAMTWVRQAPGKGLEWVSAISGSGDYTHYADSVKGRFTISRDNSKNTVYLQMNSLRAEDSAVYYCAKDEDGGSLLGHRGQGTLVTVSSTRDKTHTCPPCPAIPEDTFFPSPESSCDVKLVEKSFETDTNLNFQNLSVIGFRILLLKVAGFNLLMTLRLWSSRAKRSGSGVKQTLNFDLLKLAGDVESNPGPSRGHMTEYKPTVRLATRDDVPRAVRTLAAAFADYPATRHTVDPDRHIERVTELQELFLTRVGLDIGKVWVADDGAAVAVWTTPESVEAGAVFAEIGPRMAELSGSRLAAQQQMEGLLAPHRPKEPAWFLATVGVSPDHQGKGLGSAVVLPGVEAAERAGVPAFLETSAPRNLPFYERLGFTVTADVEVPEGPRTWCMTRKPGA
B3: 22025 (protein)
chain: MALPVTALLLPLALLLHAARPQLQLQESGPGLVKPSETLSLTCTVSGDSISSGDYYWGWIRQPPGKGLEWIGHIYYSGVTYYNPSLKSRVTISVDTSRNQFSLKLSSVTAADTAVYYCTREDSSNWRSRGQGTLVTVSSLEDKTHTCPPCPAGRADCGFTSESYQQGVLSATILYEILLGKATLYAVLVSALVLMAMVKRKDSRGRAKRSGSGATNFSLLKQAGDVEENPGPTSMDWIWRILFLVGAATGAHSFEVQLLESGGGLIQPGGSLRLSCAASGFTFSSHAMTWVRQAPGKGLEWVSAISGSGDYTHYADSVKGRFTISRDNSKNTVYLQMNSLRAEDSAVYYCAKDEDGGSLLGHRGQGTLVTVSSTRDKTHTCPPCPAIPEDTFFPSPESSCDVKLVEKSFETDTNLNFQNLSVIGFRILLLKVAGFNLLMTLRLWSSRAKRSGSGVKQTLNFDLLKLAGDVESNPGPSRGHMTEYKPTVRLATRDDVPRAVRTLAAAFADYPATRHTVDPDRHIERVTELQELFLTRVGLDIGKVWVADDGAAVAVWTTPESVEAGAVFAEIGPRMAELSGSRLAAQQQMEGLLAPHRPKEPAWFLATVGVSPDHQGKGLGSAVVLPGVEAAERAGVPAFLETSAPRNLPFYERLGFTVTADVEVPEGPRTWCMTRKPGA
B4: 22029 (protein)
chain: MALPVTALLLPLALLLHAARPQLQLQESGPGLVKPSETLSLTCTVSGDSISSGDYYWGWIRQPPGKGLEWIGHIYYSGVTYYNPSLKSRVTISVDTSRNQFSLKLSSVTAADTAVYYCTREDSSNWRSRGQGTLVTVSSLEDKTHTCPPCPAPIKTDVITMDPKDNCSKDANDTLLLQLTNTSAYYMYLLLLLKSVVYFAIITCCLLRRTAFCCNGEKSRAKRSGSGATNFSLLKQAGDVEENPGPTSMDWIWRILFLVGAATGAHSFEVQLVESGGGVVQPGRSLRLSCAASGFSFSGYGMHWVRQAPGKGLEWVAYISYDGSNKYYADSVKGRFTISRDNSKNTLYLQMNSLRAEDTAVYYCAKDPAWGLRLGESSSYDFDIWGQGTMVTVSSTRIQNPDPAVYQLRDSKSSDKSVCLFTDFDSQTNVSQSKDSDVYITDKCVLDMRSMDFKSNSAVAWSNKSDFACANAFNNSIIPEDTFFPSPESSCDVKLVEKSFETDTNLNFQNLSVIGFRILLLKVAGFNLLMTLRLWSSRAKRSGSGVKQTLNFDLLKLAGDVESNPGPSRGHMTEYKPTVRLATRDDVPRAVRTLAAAFADYPATRHTVDPDRHIERVTELQELFLTRVGLDIGKVWVADDGAAVAVWTTPESVEAGAVFAEIGPRMAELSGSRLAAQQQMEGLLAPHRPKEPAWFLATVGVSPDHQGKGLGSAVVLPGVEAAERAGVPAFLETSAPRNLPFYERLGFTVTADVEVPEGPRTWCMTRKPGA
B5: 22051 (protein)
chain: MALPVTALLLPLALLLHAARPQLQLQESGPGLVKPSETLSLTCTVSGDSISSGDYYWGWIRQPPGKGLEWIGHIYYSGVTYYNPSLKSRVTISVDTSRNQFSLKLSSVTAADTAVYYCTREDSSNWRSRGQGTLVTVSSLEDKTHTCPPCPAGRADCGFTSESYQQGVLSATILYEILLGKATLYAVLVSALVLMAMVKRKDSRGRAKRSGSGATNFSLLKQAGDVEENPGPTSMDWIWRILFLVGAATGAHSFEVQLLESGGGLIQPGGSLRLSCAASGFTFSSHAMTWVRQAPGKGLEWVSAISGSGDYTHYADSVKGRFTISRDNSKNTVYLQMNSLRAEDSAVYYCAKDEDGGSLLGHRGQGTLVTVSSTRDKTHTCPPCPAEVKTDSTDHVKPKETENTKQPSKSCHKPKAIVHTEKVNMMSLTVLGLRMLFAKTVAVNFLLTAKLFFL
B6: 22048 (protein)
chain: MALPVTALLLPLALLLHAARPQVQLVESGGGLVQPGGSLRLSCAASGFTFTNHAMSWVRQAPGKGLELVSSISGNGRTTYYADSVKGRFTISRDISKNTLDLQMNSLRAEDTAVYYCAKDGGETLVDSRGQGTLVTVSSLEGQPKANPTVTLFPPSSEELQANKATLVCLISDFYPGAVTVAWKADGSPVKAGVETTKPSKQSNNKYAASSYLSLTPEQWKSHRSYSCQVTHEGSTVEKTVAPTECSPIKTDVITMDPKDNCSKDANDTLLLQLTNTSAYYMYLLLLLKSVVYFAIITCCLLRRTAFCCNGEKSRAKRSGSGATNFSLLKQAGDVEENPGPTSMDWIWRILFLVGAATGAHSFEEVQLLESGGGLVQPGGSLRLSCAASGFTFSSYAMSWVRQAPGKGLEWVSSISGSGDYIYYADSVKGRFTISRDISKNTLYLQMNSLRAEDTAVYYCAKEGTGANSSLADYRGQGTLVTVSSTRASTKGPSVFPLAPSSKSTSGGTAALGCLVKDYFPEPVTVSWNSGALTSGVHTFPAVLQSSGLYSLSSVVTVPSSSLGTQTYICNVNHKPSNTKVDKRVEPKSCEVKTDSTDHVKPKETENTKQPSKSCHKPKAIVHTEKVNMMSLTVLGLRMLFAKTVAVNFLLTAKLFFLRAKRSGSGVKQTLNFDLLKLAGDVESNPGPSRGHMTEYKPTVRLATRDDVPRAVRTLAAAFADYPATRHTVDPDRHIERVTELQELFLTRVGLDIGKVWVADDGAAVAVWTTPESVEAGAVFAEIGPRMAELSGSRLAAQQQMEGLLAPHRPKEPAWFLATVGVSPDHQGKGLGSAVVLPGVEAAERAGVPAFLETSAPRNLPFYERLGFTVTADVEVPEGPRTWCMTRKPGA
B7: 22050 (protein)
chain: B6 chain
B8: 22041 (protein)
chain: MALPVTALLLPLALLLHAARPQLQLQESGPGLVKPSETLSLTCTVSGDSISSGDYYWGWIRQPPGKGLEWIGHIYYSGVTYYNPSLKSRVTISVDTSRNQFSLKLSSVTAADTAVYYCTREDSSNWRSRGQGTLVTVSSLEGSGRADCGFTSESYQQGVLSATILYEILLGKATLYAVLVSALVLMAMVKRKDSRGRAKRSGSGATNFSLLKQAGDVEENPGPTSMDWIWRILFLVGAATGAHSFEVQLLESGGGLIQPGGSLRLSCAASGFTFSSHAMTWVRQAPGKGLEWVSAISGSGDYTHYADSVKGRFTISRDNSKNTVYLQMNSLRAEDSAVYYCAKDEDGGSLLGHRGQGTLVTVSSTRDKTHTCPPCPAIPEDTFFPSPESSCDVKLVEKSFETDTNLNFQNLSVIGFRILLLKVAGFNLLMTLRLWSSRAKRSGSGVKQTLNFDLLKLAGDVESNPGPSRGHMTEYKPTVRLATRDDVPRAVRTLAAAFADYPATRHTVDPDRHIERVTELQELFLTRVGLDIGKVWVADDGAAVAVWTTPESVEAGAVFAEIGPRMAELSGSRLAAQQQMEGLLAPHRPKEPAWFLATVGVSPDHQGKGLGSAVVLPGVEAAERAGVPAFLETSAPRNLPFYERLGFTVTADVEVPEGPRTWCMTRKPGA

tested on: RAJI cells; assay: JNG assay, co-culture with RAJI cells; format: cell-based; conditions: JNG cells expressing construct, co-culture with Raji
Procedure, shortened: (§1)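 Jurkat-NFAT-GFP (JNG) cells stably expressing SAR constructs via lentiviral transduction and puromycin/blasticidin selection were cocultured with target cells at E:T ~1:2 for ~4–18 h. NFAT-driven GFP was measured by FACS versus parental JNG cells; scores +/- to 5+ denote ~5–50% GFP-positive cells.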

| Molecule | NFAT-GFP ASSAY: Raji |
| --- | --- |
| B1 | +/- (refer to approximately 5%, 10%, 20%, 30%, 40% and 50% GFP positive cells) |
| B2 | +/- (refer to approximately 5%, 10%, 20%, 30%, 40% and 50% GFP positive cells) |
| B3 | +/- (refer to approximately 5%, 10%, 20%, 30%, 40% and 50% GFP positive cells) |
| B4 | +/- (refer to approximately 5%, 10%, 20%, 30%, 40% and 50% GFP positive cells) |
| B5 | +/- (refer to approximately 5%, 10%, 20%, 30%, 40% and 50% GFP positive cells) |
| B6 | + (refer to approximately 5%, 10%, 20%, 30%, 40% and 50% GFP positive cells) |
| B7 | + (refer to approximately 5%, 10%, 20%, 30%, 40% and 50% GFP positive cells) |
| B8 | + (refer to approximately 5%, 10%, 20%, 30%, 40% and 50% GFP positive cells) |

tested on: L363 cells; assay: JNG assay, co-culture with L363 cells; format: cell-based; conditions: co-culture with L363
Procedure, shortened: as §1

| Molecule | NFAT-GFP ASSAY: L363 |
| --- | --- |
| B1 | +/- (refer to approximately 5%, 10%, 20%, 30%, 40% and 50% GFP positive cells) |
| B2 | +/- (refer to approximately 5%, 10%, 20%, 30%, 40% and 50% GFP positive cells) |
| B3 | + (refer to approximately 5%, 10%, 20%, 30%, 40% and 50% GFP positive cells) |
| B4 | + (refer to approximately 5%, 10%, 20%, 30%, 40% and 50% GFP positive cells) |
| B5 | +/- (refer to approximately 5%, 10%, 20%, 30%, 40% and 50% GFP positive cells) |
| B6 | +/- (refer to approximately 5%, 10%, 20%, 30%, 40% and 50% GFP positive cells) |
| B7 | +/- (refer to approximately 5%, 10%, 20%, 30%, 40% and 50% GFP positive cells) |
| B8 | + (refer to approximately 5%, 10%, 20%, 30%, 40% and 50% GFP positive cells) |
